How the values were obtained:
[1] = system: endogenous SOCS-2 gene; assay: Endogenous SOCS-2 mRNA in HepG2 cells by quantitative PCR with or without IL-6; type: cell-based, human; conditions: IL-6 10 ng/mL, 3 hours, compensated with G3PDH, relative to absence of IL-6
Experimental: First, an endogenous SOCS-2 promoter activity was measured. Since a stimulation capable of promoting the SOCS-2 promoter activity in pancreatic β cells was unknown, an amount of SOCS-2 mRNA was measured when stimulated by IL-6, which was a typical stimulation capable of increasing a transcriptional activity of STAT1, STAT3, or STAT5. It is considered that STAT1, STAT3, and STAT5 transduce an external signal, and finally promote a SOCS-2 transcriptional activity. More particularly, human HepG2 cells in which the IL-6 reactivity was confirmed were used to measure and compare amounts of endogenous SOCS-2 mRNA expressed when stimulated with or without IL-6 stimulation. The amount of gene expressed was compensated by measuring an amount of a G3PDH (Glyceraldehyde 3-phosphate dehydrogenase) gene expressed, at the same time. […] In this measuring system, an amount of fluorescence from a SYBR Green I dye incorporated into double-stranded DNAs amplified by PCR was detected and quantified in real time, to determine the amount of gene expressed. […]
The amount of […] SOCS-2 gene expressed was compensated with that of the G3PDH gene expressed in accordance with the following equation: C=A/B [C: Compensated amount of SOCS-2 expressed, A: Measured value of the SOCS-2 gene expressed, and B: Measured value of the G3PDH gene expressed]

[2] = system: SOCS-2 promoter; assay: SOCS-2 promoter reporter (luciferase) activity in HepG2 cells with or without IL-6; type: cell-based, human; conditions: IL-6 stimulation 3 hours, standardized by β-galactosidase activity, relative to absence of IL-6
Experimental: On the basis of the registered sequence (NCBI Reference Sequences No. NM_003877) of human SOCS-2, a genomic sequence which accords with the sequence was specified as the sequence of NCBI GenBank accession No. NC—000012.5—93000001—94000000. To obtain a DNA consisting of nucleotides 893,596-898,678 of NC—000012.5—93000001—94000000, which was considered the promoter region of human SOCS-2, i.e., a DNA consisting of the nucleotide sequence of SEQ ID NO: 3, the first PCR was carried out using synthetic oligo DNAs [5′-gtg[…]-3′ (SEQ ID NO: 8) and 5′-gtg[…]-3′ (SEQ ID NO: 9)] having restriction enzyme sites […] and NheI, respectively, and an LA Taq (TAKARA; catalogue code RR002A). The resulting PCR product was diluted to 1/50 with sterile water, and the second PCR was carried out using the diluted solution as a template, synthetic oligo DNAs [5′-gtg[…]-3′ (SEQ ID NO: 10) and 5′-gtg[…]-3′ (SEQ ID NO: 11)], and an LA Taq (TAKARA; catalogue code RR002A). […]
HepG2 cells (ATCC accession No. HB-8065) was transformed with the SOCS-2 reporter vector or the control vector prepared in Example 3(1) to measure the activity when stimulated with or without IL-6. […] The cells were lysed with a cell lysis solution LCβ (Toyo Ink MFG), and a luciferase activity was measured using a PicaGene coloring kit (Toyo Ink MFG; 309-04321). […]

[3] = system: MIN6B1 cells; assay: Insulin secreted from MIN6B1 cells overexpressing SOCS-2; type: cell-based, mouse; conditions: 20 minutes, adenovirus infected MIN6B1 cells
Experimental: Mouse pancreatic β cell line MIN6B1 cells [Endocrinol. (2003) 144,. 1368-1379] were infected with SOCS-2/pAdTrack-CMV or pAdTrack-CMV (control) to prepare pancreatic β cells overexpressing SOCS-2, as described below.
MIN6B1 cells (2×10^5 cells) were seeded on a 24-well plate, and cultured for 24 hours in 0.5 mL of a minimum essential medium DMEM (GIBCO) containing 10% fetal bovine serum (SIGMA). SOCS-2/pAdTrack-CMV or pAdTrack-CMV (control) was added to each medium at a concentration of 4×10^8 pfu/well.
After 14 hours from the adenovirus infection of pancreatic β cells, each medium was aspirated, and cells were washed three times with KRB-HEPES (140 mmol/L NaCl, 3.6 mmol/L KCl, 0.5 mmol/L NaH2PO4, 0.5 mmol/L MgSO4, 1.5 mmol/L-CaCl2, 10 mmol/L Hepes, 2 mmol/L NaHCO3, and 0.1% BSA, pH 7.4), and incubated in 2.8 mmol/L glucose-containing KRB-HEPES (1 mL) at 37° C. for 1 hour in the presence of 5% CO2.
After the buffer was aspirated, 2.8 mmol/L or 16.8 mmol/L glucose-containing KRB-HEPES was added. The cells were further incubated at 37° C. for 20 minutes in the presence of 5% CO2, and an amount of insulin secreted into the supernatant was measured.
A commercially available insulin radioimmunoassay kit (Rat insulin [125I] RIA system; Amersham Bioscience) was used for the measurement of the amount of insulin secreted.

[4] = system: rat pancreatic Langerhans islets; assay: Insulin secreted from rat pancreatic Langerhans islets overexpressing SOCS-2; type: cell-based; conditions: 90 minutes, adenovirus infected rat islets
Experimental: After 4 male rats (6-8 weeks old, 350 to 450 g in weight) were anesthetized, the abdomen was incised and exposed. A bile duct of the liver was ligated, and blood was drawn from the heart. From the bile duct, 5 mL of HBSS-HEPES (136.8 mmol/L NaCl, 5.3 mmol/L KCl, 0.8 mmol/L MgSO4, 1 mmol/L Na2HPO4, 0.44 mmol/L KH2PO4, 4.1 mmol/L NaHCO3, 10 mmol/L Hepes, 1 mmol/L CaCl2, and 2 mmol/L glucose, pH 7.2) supplemented with 0.02% Liberase (Roche Diagnostic) was injected using a winged needle. The pancreas was removed and transferred to a tube containing 5 mL of HBSS-HEPE, and incubated at 37° C. for 20 minutes. After the incubation, the whole was stirred, and ice-cold HBSS-HEPES-0.35% BSA was added. The mixture was centrifuged at 1500 rpm for 1 minute to remove the supernatant. To the precipitated tissues, 10 mL of HBSS-HEPES-0.35% BSA was added, and the tissues were suspended using a needle. This washing step was repeated twice. After the centrifugation, the supernatant was removed, and 10 mL of a 8.3% Ficoll-Conray solution was added and suspended. Further, 10 mL of HBSS-HEPES-0.35% BSA was added, and the whole was centrifuged for 20 minutes. After the centrifugation, pancreatic Langerhans islets between two liquid layers were collected. To the collected pancreatic Langerhans islets, 10 mL of HBSS-HEPES-0.35% BSA was added, and the whole was centrifuged. […]

[5] = 16.8 mmol/L glucose, p<0.01 vs control

For “IL-6: typical stimulation capable of increasing a transcriptional activity of STAT1, STAT3, or STAT5 (R&D Systems)”, the “expression of the endogenous SOCS-2 gene, factor of increase” value [1] was “approximately 2” and the “SOCS-2 reporter activity, factor of increase” value [2] was “approximately 2”.

B1: SOCS-2: mouse SOCS-2 (amino acid sequence of SEQ ID NO: 2) overexpressed in pancreatic β cells via adenovirus vector pAdTrack-CMV (protein, listed as Mus sp.)
chain: MTLRCLEPSGNGADRTRSQWGTAGLPEEQSPEAARLAKALRELSQTGWYWGSMTVNEAKEKLKEAPEGTFLIRDSSHSDYLLTISVKTSAGPTNLRIEYQDGKFRLDSIICVKSKLKQFDSVVHLIDYYVQMCKDKRTGPEAPRNGTVHLYLTKPLYTSAPTLQHFCRLAINKCTGTIWGLPLPTRLKDYLEEYKFQV
In the case of B1, the “insulin secretion versus control” value ([3]; 2.8 mmol/L glucose) is reported as “no difference was observed”, the “insulin secretion versus control” value [3, 5] is reported as “inhibited the activity of promoting insulin secretion” and the “insulin secretion versus control” value ([4]; 2.8 mmol/L glucose) is reported as “no difference was observed”. The “insulin secretion versus control” value [4, 5] was “inhibited the activity of promoting insulin secretion”.

— patent US20070231812A1, “Method of Screening Antidiabetic Agents” (priority 2004, published 2007)
